Results as given in publication PMC7679444 (2020).

B1: GST-HA-ATG16L1(231–607) [human] / TMEM59 peptide (residues 268–280), wild type [modified: long spacer (Tds) at the N-terminal end, used for immobilisation; long spacer (Tds) at the N-terminal end, used for immobilisation] [not stated] (parent complex)
chain 1: PLPVEQDDDIEVIVDETSDHTEETSPVRAISRAATKRLSQPAGGLLDSITNIFGRRSVSSFPVPQDNVDTHPGSGKEVRVPATALCVFDAHDGEVNAVQFSPGSRLLATGGMDRRVKLWEVFGEKCEFKGSLSGSNAGITSIEFDSAGSYLLAASNDFASRIWTVDDYRLRHTLTGHSGKVLSAKFLLDNARIVSGSHDRTLKLWDLRSKVCIKTVFAGSSCNDIVCTEQCVMSGHFDKKIRFWDIRSESIVREMELLGKITALDLNPERTELLSCSRDDLLKVIDLRTNAIKQTFSAPGFKCGSDWTRVVFSPDGSYVAAGSAEGSLYIWSVLTGKVEKVLSKQHSSSINAVAWSPSGSHVVSVDKGCKAVLWAQY
chain 2: YVPSEKLSIYGDL

Variants of: B1
Assay: peptide microarray; 800, 400 nM (n = 6); parent: 100; read off a plot

Row | Variant | percent of parent [% WT]
1 | chain 2 Y1A, chain 2 E5A, chain 2 Y10A, chain 2 L13A | ~1
